Source: article PMC9482650, “Quantitative fragmentomics allow affinity mapping of interactomes” (Nature Communications, 2022)

Key:
Test in all cases: holdup assay
Parameters in all cases: key: below the threshold = too weak to quantify, mostly under pKd 3.1 to 4
GRASP, Q7Z6J2 = target: GRASP, Q7Z6J2
SYNJ2BP, P57105 = target: T1, SYNJ2BP, P57105
T1 sequence (P57105 8-110, limits assumed, looked up): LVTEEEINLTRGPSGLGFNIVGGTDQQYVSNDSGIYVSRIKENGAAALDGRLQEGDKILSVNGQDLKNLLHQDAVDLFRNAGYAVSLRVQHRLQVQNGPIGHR

TJP3_3, O95049 = target: T2, TJP3_3, O95049
T2 sequence (O95049 375-456, limits assumed, looked up): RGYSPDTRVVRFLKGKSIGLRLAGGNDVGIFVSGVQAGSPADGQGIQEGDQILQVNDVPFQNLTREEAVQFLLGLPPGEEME

NHERF2_2, Q15599 = target: NHERF2_2, Q15599
NHERF2_2, Q15599, sequence (Q15599 142-238): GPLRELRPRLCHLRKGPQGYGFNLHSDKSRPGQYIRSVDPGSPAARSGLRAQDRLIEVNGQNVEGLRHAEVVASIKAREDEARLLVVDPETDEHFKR

SIPA1L2, Q9P2F8 = target: T3, SIPA1L2, Q9P2F8
T3 sequence (Q9P2F8 945-1036, limits assumed, looked up): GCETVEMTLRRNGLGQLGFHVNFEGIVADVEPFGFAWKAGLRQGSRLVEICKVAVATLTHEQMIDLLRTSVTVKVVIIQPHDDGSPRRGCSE

SCRIB_2, Q14160 = target: SCRIB_2, Q14160
SCRIB_2, Q14160, sequence (Q14160 857-960): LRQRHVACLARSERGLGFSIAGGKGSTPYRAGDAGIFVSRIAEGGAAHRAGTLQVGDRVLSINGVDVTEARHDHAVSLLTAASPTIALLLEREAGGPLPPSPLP

DLG2_2, Q15700 = target: DLG2_2, Q15700
DLG2_2, Q15700, sequence (Q15700 189-283): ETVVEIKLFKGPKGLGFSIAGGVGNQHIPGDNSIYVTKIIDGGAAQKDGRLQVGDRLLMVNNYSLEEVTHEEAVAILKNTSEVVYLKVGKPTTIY

AHNAK1, Q09666 = target: AHNAK1, Q09666
AHNAK1, Q09666, sequence (Q09666 4-100): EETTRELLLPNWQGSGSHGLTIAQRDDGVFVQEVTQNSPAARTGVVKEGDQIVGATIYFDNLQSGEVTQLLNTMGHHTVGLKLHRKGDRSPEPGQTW

Inadl_6, Q8NI35 = target: Inadl_6, Q8NI35
Inadl_6, Q8NI35, sequence (Q8NI35 1058-1167): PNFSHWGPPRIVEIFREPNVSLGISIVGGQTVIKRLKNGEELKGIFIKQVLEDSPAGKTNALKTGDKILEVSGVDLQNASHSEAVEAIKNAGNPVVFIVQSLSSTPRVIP

PTPN3, P26045 = target: PTPN3, P26045
PTPN3, P26045, sequence (P26045 505-587): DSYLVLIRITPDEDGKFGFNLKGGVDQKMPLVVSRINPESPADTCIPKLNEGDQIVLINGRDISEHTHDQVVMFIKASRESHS

DLG4_2, P78352 = target: DLG4_2, P78352
DLG4_2, P78352, sequence (P78352 155-259): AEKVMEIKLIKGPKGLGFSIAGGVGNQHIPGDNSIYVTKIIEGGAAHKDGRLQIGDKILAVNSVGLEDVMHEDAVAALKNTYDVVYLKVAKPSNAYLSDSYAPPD

SNTG2, Q9NY99 = target: T4, SNTG2, Q9NY99
T4 sequence (Q9NY99 68-166, limits assumed, looked up): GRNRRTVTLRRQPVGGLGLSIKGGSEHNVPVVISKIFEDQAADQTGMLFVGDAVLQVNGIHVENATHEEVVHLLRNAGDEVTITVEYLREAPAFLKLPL

LNX1_2, Q8TBB1 = target: LNX1_2, Q8TBB1
LNX1_2, Q8TBB1, sequence (Q8TBB1 371-470): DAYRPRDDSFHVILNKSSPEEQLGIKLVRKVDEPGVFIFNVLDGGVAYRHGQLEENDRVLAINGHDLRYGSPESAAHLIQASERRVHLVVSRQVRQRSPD

PDZRN4_1, Q6ZMN7 = target: PDZRN4_1, Q6ZMN7
PDZRN4_1, Q6ZMN7, sequence (Q6ZMN7 213-318): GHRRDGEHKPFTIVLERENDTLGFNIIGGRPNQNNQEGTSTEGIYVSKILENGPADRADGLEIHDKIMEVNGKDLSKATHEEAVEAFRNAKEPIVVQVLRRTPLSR

SHANK1, Q9Y566 = target: T5, SHANK1, Q9Y566
T5 sequence (Q9Y566 658-767, limits assumed, looked up): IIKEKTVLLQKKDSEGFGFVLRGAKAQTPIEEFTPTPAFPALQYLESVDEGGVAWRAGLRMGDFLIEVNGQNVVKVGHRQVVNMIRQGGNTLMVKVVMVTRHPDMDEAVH

MPP2, Q14168 = target: T6, MPP2, Q14168
T6 sequence (Q14168 180-250, limits assumed, looked up): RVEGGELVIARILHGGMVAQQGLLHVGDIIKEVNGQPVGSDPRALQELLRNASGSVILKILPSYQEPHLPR

ARHGAP21, Q5T5U3 = target: T7, ARHGAP21, Q5T5U3
T7 sequence (Q5T5U3 45-169, limits assumed, looked up): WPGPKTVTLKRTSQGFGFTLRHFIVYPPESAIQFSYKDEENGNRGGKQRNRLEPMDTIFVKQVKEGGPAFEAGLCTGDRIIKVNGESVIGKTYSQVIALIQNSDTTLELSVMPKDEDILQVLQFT

SCRIB_3, Q14160 = target: SCRIB_3, Q14160
SCRIB_3, Q14160, sequence (Q14160 999-1103): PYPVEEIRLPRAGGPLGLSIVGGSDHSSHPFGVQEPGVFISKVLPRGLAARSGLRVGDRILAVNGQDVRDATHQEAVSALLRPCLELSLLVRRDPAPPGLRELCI

SCRIB_1, Q14160 = target: SCRIB_1, Q14160
SCRIB_1, Q14160, sequence (Q14160 718-814): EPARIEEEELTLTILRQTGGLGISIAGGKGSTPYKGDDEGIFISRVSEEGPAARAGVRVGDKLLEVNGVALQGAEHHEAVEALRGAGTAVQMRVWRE

NHERF4_2, Q86UT5 = target: NHERF4_2, Q86UT5
NHERF4_2, Q86UT5, sequence (Q86UT5 220-308): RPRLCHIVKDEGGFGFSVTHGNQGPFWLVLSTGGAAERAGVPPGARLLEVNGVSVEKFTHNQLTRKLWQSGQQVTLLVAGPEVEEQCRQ

LRRC7, Q96NW7 = target: T8, LRRC7, Q96NW7
T8 sequence (Q96NW7 1440-1537, limits assumed, looked up): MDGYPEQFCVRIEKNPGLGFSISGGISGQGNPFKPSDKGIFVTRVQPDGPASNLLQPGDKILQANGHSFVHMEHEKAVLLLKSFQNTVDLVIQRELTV

DLG3_3, Q92796 = target: T9, DLG3_3, Q92796
T9 sequence (Q92796 374-475, limits assumed, looked up): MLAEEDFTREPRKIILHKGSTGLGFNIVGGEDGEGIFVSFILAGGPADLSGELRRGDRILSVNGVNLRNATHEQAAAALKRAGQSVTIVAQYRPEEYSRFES

DFNB31_1, Q9P202 = target: T10, DFNB31_1, Q9P202
T10 sequence (Q9P202 135-233, limits assumed, looked up): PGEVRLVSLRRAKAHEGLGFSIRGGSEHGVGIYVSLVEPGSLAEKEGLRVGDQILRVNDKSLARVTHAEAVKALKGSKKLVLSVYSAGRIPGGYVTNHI

PTPN13_1, Q12923 = target: T11, PTPN13_1, Q12923
T11 sequence (Q12923 1088-1188, limits assumed, looked up): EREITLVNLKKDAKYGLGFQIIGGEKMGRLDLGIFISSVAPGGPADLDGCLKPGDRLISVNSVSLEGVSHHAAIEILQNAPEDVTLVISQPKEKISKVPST

DLG3_2, Q92796 = target: T12, DLG3_2, Q92796
T12 sequence (Q92796 221-321, limits assumed, looked up): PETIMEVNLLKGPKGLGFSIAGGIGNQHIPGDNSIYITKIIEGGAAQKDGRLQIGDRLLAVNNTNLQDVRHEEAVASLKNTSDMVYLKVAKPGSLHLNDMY

FRMPD3, Q5JV73 = target: FRMPD3, Q5JV73
FRMPD3, Q5JV73, sequence (Q5JV73 12-100): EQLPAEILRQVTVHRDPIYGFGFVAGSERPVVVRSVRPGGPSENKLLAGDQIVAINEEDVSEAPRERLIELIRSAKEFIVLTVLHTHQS

[1] = plain residues with an end cap or a label only (N-terminal biotin on a linker: ahx)
[2] = plain residues with an end cap or a label only (N-terminal biotin on a linker: ttds)
[3] = plain residues with an end cap or a label only (N-terminal biotin on a linker: gsgsgs; C-terminal amide)

GRASP, Q7Z6J2, sequence (Q7Z6J2 96-193): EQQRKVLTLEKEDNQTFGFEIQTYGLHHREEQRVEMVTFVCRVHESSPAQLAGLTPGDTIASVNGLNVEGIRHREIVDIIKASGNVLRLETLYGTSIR

## RAVEEEESRF [PSCDBP, O60759]
GRASP, Q7Z6J2; [1]
  pKd: below the threshold
SYNJ2BP, P57105; [1]
  pKd: below the threshold
TJP3_3, O95049; [1]
  pKd: below the threshold
NHERF2_2, Q15599; [1]
  pKd: 5
SIPA1L2, Q9P2F8; [1]
  pKd: below the threshold
SCRIB_2, Q14160; [1]
  pKd: below the threshold
DLG2_2, Q15700; [1]
  pKd: below the threshold
AHNAK1, Q09666; [1]
  pKd: below the threshold
Inadl_6, Q8NI35; [1]
  pKd: below the threshold
PTPN3, P26045; [1]
  pKd: 3.98
DLG4_2, P78352; [1]
  pKd: below the threshold
SNTG2, Q9NY99; [1]
  pKd: below the threshold
LNX1_2, Q8TBB1; [1]
  pKd: below the threshold
PDZRN4_1, Q6ZMN7; [1]
  pKd: below the threshold
SHANK1, Q9Y566; [1]
  pKd: 4.77
MPP2, Q14168; [1]
  pKd: below the threshold
ARHGAP21, Q5T5U3; [1]
  pKd: below the threshold
SCRIB_3, Q14160; [1]
  pKd: below the threshold
SCRIB_1, Q14160; [1]
  pKd: below the threshold
NHERF4_2, Q86UT5; [1]
  pKd: below the threshold
LRRC7, Q96NW7; [1]
  pKd: below the threshold
DLG3_3, Q92796; [1]
  pKd: below the threshold
DFNB31_1, Q9P202; [1]
  pKd: below the threshold
PTPN13_1, Q12923; [1]
  pKd: below the threshold
DLG3_2, Q92796; [1]
  pKd: below the threshold
FRMPD3, Q5JV73; [1]
  pKd: below the threshold

## RPLPRKVSQL [DOCK4, Q8N1I0]
GRASP, Q7Z6J2; [2]
  pKd: 3.93
SYNJ2BP, P57105; [2]
  pKd: 3.59
TJP3_3, O95049; [2]
  pKd: below the threshold
NHERF2_2, Q15599; [2]
  pKd: below the threshold
SIPA1L2, Q9P2F8; [2]
  pKd: below the threshold
SCRIB_2, Q14160; [2]
  pKd: below the threshold
DLG2_2, Q15700; [2]
  pKd: below the threshold
AHNAK1, Q09666; [2]
  pKd: below the threshold
Inadl_6, Q8NI35; [2]
  pKd: below the threshold
PTPN3, P26045; [2]
  pKd: 4.73
DLG4_2, P78352; [2]
  pKd: below the threshold
SNTG2, Q9NY99; [2]
  pKd: 3.77
LNX1_2, Q8TBB1; [2]
  pKd: below the threshold
PDZRN4_1, Q6ZMN7; [2]
  pKd: 3.5
SHANK1, Q9Y566; [2]
  pKd: below the threshold
MPP2, Q14168; [2]
  pKd: below the threshold
ARHGAP21, Q5T5U3; [2]
  pKd: below the threshold
SCRIB_3, Q14160; [2]
  pKd: 4.72
SCRIB_1, Q14160; [2]
  pKd: below the threshold
NHERF4_2, Q86UT5; [2]
  pKd: below the threshold
LRRC7, Q96NW7; [2]
  pKd: below the threshold
DLG3_3, Q92796; [2]
  pKd: below the threshold
DFNB31_1, Q9P202; [2]
  pKd: below the threshold
PTPN13_1, Q12923; [2]
  pKd: below the threshold
DLG3_2, Q92796; [2]
  pKd: below the threshold
FRMPD3, Q5JV73; [2]
  pKd: below the threshold

## YGIVQETTFDLGGDIH [MLLT4_int, P55196]
GRASP, Q7Z6J2; [3]
  pKd: below the threshold
SYNJ2BP, P57105; [3]
  pKd: below the threshold
TJP3_3, O95049; [3]
  pKd: below the threshold
NHERF2_2, Q15599; [3]
  pKd: below the threshold
SIPA1L2, Q9P2F8; [3]
  pKd: below the threshold
SCRIB_2, Q14160; [3]
  pKd: 3.65
DLG2_2, Q15700; [3]
  pKd: below the threshold
AHNAK1, Q09666; [3]
  pKd: below the threshold
Inadl_6, Q8NI35; [3]
  pKd: below the threshold
PTPN3, P26045; [3]
  pKd: 3.88
DLG4_2, P78352; [3]
  pKd: below the threshold
SNTG2, Q9NY99; [3]
  pKd: below the threshold
LNX1_2, Q8TBB1; [3]
  pKd: below the threshold
PDZRN4_1, Q6ZMN7; [3]
  pKd: below the threshold
SHANK1, Q9Y566; [3]
  pKd: below the threshold
MPP2, Q14168; [3]
  pKd: below the threshold
ARHGAP21, Q5T5U3; [3]
  pKd: below the threshold
SCRIB_3, Q14160; [3]
  pKd: 4.61
SCRIB_1, Q14160; [3]
  pKd: 4.3
NHERF4_2, Q86UT5; [3]
  pKd: below the threshold
LRRC7, Q96NW7; [3]
  pKd: below the threshold
DLG3_3, Q92796; [3]
  pKd: below the threshold
DFNB31_1, Q9P202; [3]
  pKd: below the threshold
PTPN13_1, Q12923; [3]
  pKd: below the threshold
DLG3_2, Q92796; [3]
  pKd: 4.21
FRMPD3, Q5JV73; [3]
  pKd: below the threshold
